The source of these data is the Human Domainome abundance scans (Beltran et al. 2025).

B1: POU domain, class 2, transcription factor 2, residues 200 to 269; numbered along this chain, P09086 (parent)
chain: LEELEQFARTFKQRRIKLGFTQGDVGLAMGKLYGNDFSQTTISRFEALNLSFKNMCKLKPLLEKWLNDAE

± gives the uncertainty stated by the source.

This series covers variants of B1. Kind of series: abundance fitness (aPCA) (normalised: wild type 0, dead -1); higher = more abundant; growth selection in yeast, the domain comes from the species named. Conditions: Homo sapiens.
LEELEQFKRTFKQRRIKLGFTQGDVGLAMGKLYGNDFSQTTISRFEALNLSFKNMCKLKPLLEKWLNDAE [A8K]: the abundance fitness was -0.856 ± 0.18.

As for LEELEQFVRTFKQRRIKLGFTQGDVGLAMGKLYGNDFSQTTISRFEALNLSFKNMCKLKPLLEKWLNDAE [A8V], the abundance fitness is -0.057 ± 0.029.

For LEELEQFSRTFKQRRIKLGFTQGDVGLAMGKLYGNDFSQTTISRFEALNLSFKNMCKLKPLLEKWLNDAE [A8S], the abundance fitness is -0.113 ± 0.045.

As for LEELEQFERTFKQRRIKLGFTQGDVGLAMGKLYGNDFSQTTISRFEALNLSFKNMCKLKPLLEKWLNDAE [A8E], the abundance fitness is -0.846 ± 0.11.

For LEELEQFGRTFKQRRIKLGFTQGDVGLAMGKLYGNDFSQTTISRFEALNLSFKNMCKLKPLLEKWLNDAE [A8G], the abundance fitness is -0.28 ± 0.034.

Regarding LEELEQFQRTFKQRRIKLGFTQGDVGLAMGKLYGNDFSQTTISRFEALNLSFKNMCKLKPLLEKWLNDAE [A8Q], the abundance fitness is -0.63 ± 0.1.

For the variant LEELEQFCRTFKQRRIKLGFTQGDVGLAMGKLYGNDFSQTTISRFEALNLSFKNMCKLKPLLEKWLNDAE [A8C], the abundance fitness stood at 0.034 ± 0.063.

As for LEELEQFFRTFKQRRIKLGFTQGDVGLAMGKLYGNDFSQTTISRFEALNLSFKNMCKLKPLLEKWLNDAE [A8F], the abundance fitness is -0.708 ± 0.15.

Regarding LEELEQFPRTFKQRRIKLGFTQGDVGLAMGKLYGNDFSQTTISRFEALNLSFKNMCKLKPLLEKWLNDAE [A8P], the abundance fitness is -0.506 ± 0.11.

Regarding LEELEQFIRTFKQRRIKLGFTQGDVGLAMGKLYGNDFSQTTISRFEALNLSFKNMCKLKPLLEKWLNDAE [A8I], the abundance fitness is -0.082 ± 0.031.

In the case of LEELEMFARTFKQRRIKLGFTQGDVGLAMGKLYGNDFSQTTISRFEALNLSFKNMCKLKPLLEKWLNDAE [Q6M], the abundance fitness was 0.027 ± 0.052.

Regarding LEELEFFARTFKQRRIKLGFTQGDVGLAMGKLYGNDFSQTTISRFEALNLSFKNMCKLKPLLEKWLNDAE [Q6F], the abundance fitness is -0.086 ± 0.15.

With LEELEKFARTFKQRRIKLGFTQGDVGLAMGKLYGNDFSQTTISRFEALNLSFKNMCKLKPLLEKWLNDAE [Q6K], the abundance fitness stood at 0.079 ± 0.055.

On to LEELEVFARTFKQRRIKLGFTQGDVGLAMGKLYGNDFSQTTISRFEALNLSFKNMCKLKPLLEKWLNDAE [Q6V], for which the abundance fitness was -0.05 ± 0.043.

As to LEELETFARTFKQRRIKLGFTQGDVGLAMGKLYGNDFSQTTISRFEALNLSFKNMCKLKPLLEKWLNDAE [Q6T], the abundance fitness stood at 0.003 ± 0.052.

On to LEELESFARTFKQRRIKLGFTQGDVGLAMGKLYGNDFSQTTISRFEALNLSFKNMCKLKPLLEKWLNDAE [Q6S], for which the abundance fitness came to 0.001 ± 0.06.

Consider LEELEPFARTFKQRRIKLGFTQGDVGLAMGKLYGNDFSQTTISRFEALNLSFKNMCKLKPLLEKWLNDAE [Q6P], for which the abundance fitness was -0.151 ± 0.067.

For LEELELFARTFKQRRIKLGFTQGDVGLAMGKLYGNDFSQTTISRFEALNLSFKNMCKLKPLLEKWLNDAE [Q6L], the abundance fitness was -0.066 ± 0.041.

For the variant LEELENFARTFKQRRIKLGFTQGDVGLAMGKLYGNDFSQTTISRFEALNLSFKNMCKLKPLLEKWLNDAE [Q6N], the abundance fitness was -0.141 ± 0.089.

Turning to LEELEIFARTFKQRRIKLGFTQGDVGLAMGKLYGNDFSQTTISRFEALNLSFKNMCKLKPLLEKWLNDAE [Q6I], the abundance fitness is -0.028 ± 0.095.

LEELEYFARTFKQRRIKLGFTQGDVGLAMGKLYGNDFSQTTISRFEALNLSFKNMCKLKPLLEKWLNDAE [Q6Y]: the abundance fitness is -0.056 ± 0.081.

With LEELEEFARTFKQRRIKLGFTQGDVGLAMGKLYGNDFSQTTISRFEALNLSFKNMCKLKPLLEKWLNDAE [Q6E], the abundance fitness is -0.045 ± 0.047.

On to LEELEHFARTFKQRRIKLGFTQGDVGLAMGKLYGNDFSQTTISRFEALNLSFKNMCKLKPLLEKWLNDAE [Q6H], for which the abundance fitness was -0.236 ± 0.1.

Regarding LEELEAFARTFKQRRIKLGFTQGDVGLAMGKLYGNDFSQTTISRFEALNLSFKNMCKLKPLLEKWLNDAE [Q6A], the abundance fitness is -0.095 ± 0.049.

Regarding LEELEGFARTFKQRRIKLGFTQGDVGLAMGKLYGNDFSQTTISRFEALNLSFKNMCKLKPLLEKWLNDAE [Q6G], the abundance fitness was -0.048 ± 0.04.

On to LEELEWFARTFKQRRIKLGFTQGDVGLAMGKLYGNDFSQTTISRFEALNLSFKNMCKLKPLLEKWLNDAE [Q6W], for which the abundance fitness is -0.086 ± 0.056.

Regarding LEELEDFARTFKQRRIKLGFTQGDVGLAMGKLYGNDFSQTTISRFEALNLSFKNMCKLKPLLEKWLNDAE [Q6D], the abundance fitness stood at 0.001 ± 0.18.

Turning to LEELERFARTFKQRRIKLGFTQGDVGLAMGKLYGNDFSQTTISRFEALNLSFKNMCKLKPLLEKWLNDAE [Q6R], the abundance fitness was -0.019 ± 0.034.

Turning to LEELVQFARTFKQRRIKLGFTQGDVGLAMGKLYGNDFSQTTISRFEALNLSFKNMCKLKPLLEKWLNDAE [E5V], the abundance fitness is -0.052 ± 0.036.

LEELPQFARTFKQRRIKLGFTQGDVGLAMGKLYGNDFSQTTISRFEALNLSFKNMCKLKPLLEKWLNDAE [E5P]: the abundance fitness was -0.5 ± 0.089.

As to LEELYQFARTFKQRRIKLGFTQGDVGLAMGKLYGNDFSQTTISRFEALNLSFKNMCKLKPLLEKWLNDAE [E5Y], the abundance fitness was -0.161 ± 0.11.

As for LEELQQFARTFKQRRIKLGFTQGDVGLAMGKLYGNDFSQTTISRFEALNLSFKNMCKLKPLLEKWLNDAE [E5Q], the abundance fitness is -0.057 ± 0.071.

Regarding LEELWQFARTFKQRRIKLGFTQGDVGLAMGKLYGNDFSQTTISRFEALNLSFKNMCKLKPLLEKWLNDAE [E5W], the abundance fitness was -0.073 ± 0.054.

For the variant LEELNQFARTFKQRRIKLGFTQGDVGLAMGKLYGNDFSQTTISRFEALNLSFKNMCKLKPLLEKWLNDAE [E5N], the abundance fitness is -0.224 ± 0.15.

Take LEELLQFARTFKQRRIKLGFTQGDVGLAMGKLYGNDFSQTTISRFEALNLSFKNMCKLKPLLEKWLNDAE [E5L]: the abundance fitness is -0.093 ± 0.044.

Turning to LEELRQFARTFKQRRIKLGFTQGDVGLAMGKLYGNDFSQTTISRFEALNLSFKNMCKLKPLLEKWLNDAE [E5R], the abundance fitness was determined as 0 ± 0.042.

For LEELHQFARTFKQRRIKLGFTQGDVGLAMGKLYGNDFSQTTISRFEALNLSFKNMCKLKPLLEKWLNDAE [E5H], the abundance fitness was determined as 0.074 ± 0.2.

As for LEELMQFARTFKQRRIKLGFTQGDVGLAMGKLYGNDFSQTTISRFEALNLSFKNMCKLKPLLEKWLNDAE [E5M], the abundance fitness stood at 0.048 ± 0.08.

As to LEELIQFARTFKQRRIKLGFTQGDVGLAMGKLYGNDFSQTTISRFEALNLSFKNMCKLKPLLEKWLNDAE [E5I], the abundance fitness is -0.293 ± 0.098.
